Measurements from US20120115741A1 (BRACCO IMAGING S P A, published 2012).

Tests used:
Experiment in all cases: phage ELISA, Fab adsorbed on plate, peptide-displaying phage added, anti-M13-HRP detection
[1] = target: T1, Phage-displayed dodecapeptide of SEQ ID NO 8 (Ph.D.-12 library clone) (filamentous phage M13)
T1 construct: In the screening ELISA the peptide stood on whole M13 phage particles, not as a free peptide; not shown: cpIII coat protein of the filamentous phage M13; the dodecapeptide is at its N-terminus
T1 peptide: HHEPGAWLPLSP

[2] = target: T2, Phage-displayed dodecapeptide of SEQ ID NO 7 (Ph.D.-12 library clone) (filamentous phage M13)
T2 construct: In the screening ELISA the peptide stood on whole M13 phage particles, not as a free peptide; not shown: cpIII coat protein of the filamentous phage M13; the dodecapeptide is at its N-terminus
T2 peptide: MQSPIVLPLSLS

[3] = target: T3, Phage-displayed dodecapeptide of SEQ ID NO 5 (Ph.D.-12 library clone) (filamentous phage M13)
T3 construct: In the screening ELISA the peptide stood on whole M13 phage particles, not as a free peptide; not shown: cpIII coat protein of the filamentous phage M13; the dodecapeptide is at its N-terminus
T3 peptide: TMGFTAPRFPHY

[4] = target: T4, Phage-displayed dodecapeptide of SEQ ID NO 6 (Ph.D.-12 library clone) (filamentous phage M13)
T4 construct: In the screening ELISA the peptide stood on whole M13 phage particles, not as a free peptide; not shown: cpIII coat protein of the filamentous phage M13; the dodecapeptide is at its N-terminus
T4 peptide: MQSPFTPHFAER

Measured: OD450nm

B1: Fab 68 (soluble Fab, heavy chain clone 6 and light chain clone 8 from a coronary plaque sample) (Fab, V domains shown)
VH: LEESGAEVKKPGENLKISCEASGYNFVNHWIGWVRQMPGRGLEWMGRIYPGDSETRFSPSFQGQVTISVDKTLSTASLQWNSLKTSDSATYYCVTLGRWSSWQGGALSWGQGT
VL: ELTQSPATVSVSPGERATLSCRASQSISFHLAWYQQKPGQAPSLLIYGTSTRATGIPARFSGSGSGTEFTLTISSLQSEDSAVYYCQQYHNWPPLTFGGGT
notes: also called Fab of the invention; Fabs of the present invention
> 1 OD450nm: [1] | [2] | [3] | [4]
